Test results from patent US20220265819A1 (GEN2 NEUROSCIENCE, published 2022).

How the values were obtained:
[1] = molecular target: T1, full length recombinant human 2N4R tau (amino acids 1-441) (human, UniProt P10636 1-758); assay: ELISA, HEK293F supernatant on coated tau
T1 construct: Bought (rPeptide); recombinant, non-phosphorylated; also called recombinant tau
Description: (§1) Antigen was removed from wells and the plates were then blocked for 1 hour at RT with 5% dried milk in 1×TBS. Blocking solution was removed. HEK293F cell supernatant (10 μg/mL, to 0.0001 μg/mL in 1% BSA/1×TBS) was added to relevant wells, and plates were incubated for 1 hour at RT with gentle shaking. Plates were then washed four times with TBS/0.1% Tween (TBST). Anti-rabbit IgG-HRP antibody (Sigma. St Louis, Mo., USA), diluted 1:5000 in 5% milk/TBS, was added to each well and plates were incubated for 1 hour at RT with gentle shaking before being washed four times with TBST. 3,3′,5,5′-tetramethylbenzidine (TMB) ELISA solution was added to each well and plates were incubated for 15 mins at RT. An equal volume of 1 M sulfuric acid was added to each well and OD was measured at 450 nm.

[2] = molecular target: T2, Bovine serum albumin (bovine, UniProt P02769 25-607); assay: ELISA on 1% BSA, HEK293F supernatant, anti-rabbit IgG-HRP, n=1
T2 construct: Negative control antigen in ELISA; also called BSA
T2 sequence (P02769 25-607 limits assumed): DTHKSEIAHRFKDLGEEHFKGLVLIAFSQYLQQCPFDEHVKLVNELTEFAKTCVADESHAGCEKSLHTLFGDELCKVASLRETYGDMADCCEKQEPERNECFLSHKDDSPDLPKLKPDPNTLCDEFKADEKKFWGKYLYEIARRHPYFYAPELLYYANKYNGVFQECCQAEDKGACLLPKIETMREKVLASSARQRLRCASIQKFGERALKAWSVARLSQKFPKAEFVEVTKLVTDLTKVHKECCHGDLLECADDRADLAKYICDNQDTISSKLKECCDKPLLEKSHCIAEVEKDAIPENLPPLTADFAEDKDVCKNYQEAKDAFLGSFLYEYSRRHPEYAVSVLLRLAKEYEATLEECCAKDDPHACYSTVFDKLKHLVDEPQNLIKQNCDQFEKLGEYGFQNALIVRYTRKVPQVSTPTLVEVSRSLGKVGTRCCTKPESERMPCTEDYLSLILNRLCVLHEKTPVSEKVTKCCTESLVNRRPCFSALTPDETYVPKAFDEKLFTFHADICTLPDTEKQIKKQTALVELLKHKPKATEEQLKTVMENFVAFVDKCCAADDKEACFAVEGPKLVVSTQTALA
Description: FIG. 9. A panel of anti-tau IgG bind to linear immunogen peptide and full length recombinant 2N4R tau in ELISA format. […] Binding of anti-tau IgG was detected using an HRP-conjugated anti-rabbit secondary antibody and data shown are from a representative experiment (n=1).
as §1

T1 sequence (P10636 other isoform, or with tags, fused parts or gaps limits assumed): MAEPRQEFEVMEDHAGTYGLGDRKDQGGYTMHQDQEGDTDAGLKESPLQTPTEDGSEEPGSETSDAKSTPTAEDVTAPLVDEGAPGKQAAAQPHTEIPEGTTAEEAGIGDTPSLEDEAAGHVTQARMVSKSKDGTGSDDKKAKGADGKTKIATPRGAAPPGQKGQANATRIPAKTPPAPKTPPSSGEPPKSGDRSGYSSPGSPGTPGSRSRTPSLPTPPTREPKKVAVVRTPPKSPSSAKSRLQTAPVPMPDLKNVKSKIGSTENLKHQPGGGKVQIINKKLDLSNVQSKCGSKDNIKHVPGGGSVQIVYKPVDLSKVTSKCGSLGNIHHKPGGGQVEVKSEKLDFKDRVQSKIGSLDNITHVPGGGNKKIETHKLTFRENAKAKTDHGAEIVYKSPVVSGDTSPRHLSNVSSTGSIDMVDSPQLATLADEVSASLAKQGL

Binder | OD (ELISA) [1] [OD] | binding result [2]
Clone 6 rabbit monoclonal IgG (antibody, V domains shown, Rabbit IgG expressed in HEK293F; also called P2-C11; A4) VH: QSVEESGGRLVTPGTPLTLTCTVSGFSLSSYDMSWVRQAPGKGLEWIGTIGRYYNTYYATWAKGRFTISKTSSTTVDLKMTSLTTEDTATYFCASSGIWGPGTLVTVSL VL: AQVLTQTASPVSAAVGGTVTINCQSSQTVYNNNYLSWYQQKPGQPPKRLIYLASTLESGVPSRFSGSGSGTQFTLTISGVVCDDAATYYCAGTYSGSIWAFGGGTEVVVKG | 0.3 | no binding (tested: supernatant 1:50)
Clone 5 rabbit monoclonal IgG (antibody, V domains shown, Rabbit IgG expressed in HEK293F; also called P1-B2; A1) VH: QSLEESGGRLVAPGTPLTLTCTVSGFSLSSYDMSWVRQAPGRGLEWIGTISSSYRTYYASWAKGRFTISKTSSTTVDLKMTSLTTEDTATYFCASSGIWGPGTLVTVSL VL: AQVLTQTASPVSAAVGGTVTINCQSSQRVYNNYLAWYQQKPGQPPKRLIYLASTLESGVPSRFSGSGSGTQFTLTISGVVCDDAATYYCAGTYSGSIWAFGGGTEVVVKG | 0.3 | no binding (tested: supernatant 1:50)
Clone 4 rabbit monoclonal IgG (antibody, V domains shown, Rabbit IgG expressed in HEK293F; also called P2-E5; B3) VH: QSVEESGGRLVTPGTPLTLTCTVSGFSLSSYDMSWVRQAPGKGLEWIGTIGRYYNTYYATWAKGRFTISKTSSTTVDLKMTSLTTEDTATYFCASSGIWGPGTLVTVSL VL: AQVLTQTASPVSAAVGGTVTINCQSSQTVYNNNYLSWYQQKPGQPPKRLIYLASTLESGVPSRFSGSGSGTQFTLTISGVVCDDAATYYCAGTYSGSIWAFGGGTEVVVKG | 0.3 | no binding (tested: supernatant 1:50)
Clone 3 rabbit monoclonal IgG (antibody, V domains shown, Rabbit IgG expressed in HEK293F; also called P2-B12; D4) VH: QSVEESGGRLVTPGTPLTLTCTASGFSLSRYDMSWVRQAPGKGLEWIGTISGSYNTYYMSWAKGRFTISKTSSTTVDLKMTSLTTEDTATYFCASSGIWGPGTLVTVSL VL: AQVLTQTASPVSAAVGGTVTINCQSSQRVYSNYLSWYQQKPGQPPRRLIWLASTLESGVPSRFSGSGSGTQFTLTISGVVCDDAATYYCAGTYSGSIWAFGGGTEVVVKG | 0.3 | no binding (tested: supernatant 1:50)

The next lines start with the values.

OD (ELISA) [1] [OD] | binding result [2] | Binder
0.3 | no binding (tested: supernatant 1:50) | Clone 7 rabbit monoclonal IgG (antibody, V domains shown, Rabbit IgG expressed in HEK293F; also called P1-D10; D2) VH: QSVEESGGRLVTPGTPLTLTCTVSGFSLSSYDMSWVRQAPGKGLEWIGTIGRYYNTYYATWAKGRFTISKTSSTTVDLKMTSLTTEDTATYFCASSGIWGPGTLVTVSL VL: AQVLTQTASPVSAAVGGTVTINCQSSQTVYNNNYLSWYQQKPGQPPKRLIYLASTLESGVPSRFSGSGSGTQFTLTISGVVCDDAATYYCAGTYSGSIWAFGGGTEVVVKG
0.3 | no binding (tested: supernatant 1:50) | Clone 8 rabbit monoclonal IgG (antibody, V domains shown, Rabbit IgG expressed in HEK293F; also called P2-F3; H2) VH: QSLEESGGRLVAPGTPLTLTCTVSGFSLSSYDMSWVRQAPGRGLEWIGTISSSYRTYYASWAKGRFTISKTSSTTVDLKMTSLTTEDTATYFCASSGIWGPGTLVTVSL VL: AQVLTQTASPVSAAVGGTVTINCQSSQRVYNNYLAWYQQKPGQPPKRLIYLASTLESGVPSRFSGSGSGTQFTLTISGVVCDDAATYYCAGTYSGSIWAFGGGTEVVVKG
